Data reported in patent publication US11821042B2, “Targeting chromosomal instability and downstream cytosolic DNA signaling for cancer treatment” (Cornell University, priority 2017, dated 2023).

How the values were obtained:
MDA-MB-231 cells [1] = assay: Chromosome missegregation in anaphase cells; assay type: cell-based, human; details: overexpression in MDA-MB-231 cells
Procedure: (§1) Primary tumor specimens were analyzed from 60 patients with head and neck squamous cell carcinoma (HNSCC) (Chung et al. Cancer Cell 5, 489-500 (2004)). Forty patients had Hematoxylin and Eosin-stained (H&E) primary tumor samples of sufficient quality for high-resolution microscopy analysis. Analysis was restricted to cells fixed while undergoing anaphase as previously described (Bakhoun et al. Clin. Cancer Res. 17, 7704-7711 (2011); Zaki et al. Cancer 120, 1733-1742 (2014)). Chromosome missegregation was defined by hematoxylin staining presence in between the remaining segregating chromosomes during anaphase and it was reported as the percentage of cells undergoing anaphase with evidence of chromosome missegregation. Clinical lymph node status was defined by clinical examination or radiographic evidence of lymph node tumor involvement (Chung et al. Cancer Cell 5, 489-500 (2004)).
(§2) Cell fixation and antibody staining were performed as described (Bakhoun et al. Nat Commun 6, 5990 (2015)). Briefly, cells were fixed with ice-cold (−30 C) methanol for 15 minutes—when staining for centromeres, centrosomes, cGAS, Vimentin, β-actin, or α-tubulin—or 4% paraformaldehyde—when staining for RelB, p65, IRF3, ssDNA, dsDNA, CoxIV, or β-catenin. Subsequently, cells were permeabilized using 1% triton for 4 minutes. See Table 1 for antibody information.
(§3) To determine whether chromosomal instability is causally involved in metastasis, we devised a genetic approach (Bakhoun et al., Nat. Cell Biol. 11, 27-35 (2009); Bakhoun et al., Nat Commun 6, 5990 (2015)) to alter the rate of chromosome missegregation in transplantable tumor models of human TNBC (MDA-MB-231) and lung adenocarcinoma (H2030). […] These cells, with unperturbed chromosome segregation rates, are referred to a as CIN-medium cells. […] As an important control, Kif2a was overexpressed, Kif2a is a third member of the microtubule-depolymerizing kinesin-13 proteins that lacks any kinetochore or centromere localization domains (Ems-McClung et al. Semin. Cell Dev. Biol. 21, 276-282 (2010)).

H2030 cells = assay: Chromosome missegregation in anaphase cells; assay type: cell-based, human; details: overexpression in H2030 cells
Procedure: as §1, §2, §3

MDA-MB-231 cells [2] = assay: Intracardiac injection metastasis model, bioluminescence imaging and disease-specific survival; assay type: in vivo, mice; details: intracardiac injection of MDA-MB-231 cells expressing the protein, FIG. 2E
Procedure: Animal experiments were performed in accordance with protocols approved by the Weill Cornell Medicine Institutional Animal Care and Use Committee. […] There was no need to randomize animals. Investigators were not blinded to group allocation. Intracardiac injection was performed as previously described (Chen et al. Nature 533, 493-498 (2016)). Briefly, cells were trypsinized and washed with PBS and a 1×10^5 cells (in 100 μl of PBS) were injected into the left cardiac ventricle of female athymic 6-7-week-old athymic nude (nu/nu) mice (Jackson Laboratory strain 002019). Mice were then immediately injected with D-luciferin (150 mgkg^−1) and subjected to bioluminescence imaging (BLI) using tan IVIS Spectrum Xenogen instrument (Caliper Life Sciences) to ensure systemic dissemination of tumor cells. Metastatic burden was measured at week 5 after injection using BLI and in the case of MDA-MB-231 mice BLI images were taken every 1-2 weeks for up to 17 weeks. BLI images were analyzed using Living Image Software v.2.50. Disease-specific survival endpoint was met when the mice died or met the criteria for euthanasia under the IACUC protocol and had radiographic evidence of metastatic disease. For Orthotopic tumor implantation, 2.5×10^5 cells in 50p of PBS were mixed 1:1 with Matrigel (BD Biosciences) and injected into the fourth mammary fat pad. Only one tumor was implanted per animal. Primary tumors were surgically excited when they reached ˜1.5 cm in the largest dimension and metastatic dissemination was assessed using BLI imaging at 1-week to 3-week intervals for up to 30 weeks. Distant metastasis-free survival endpoint was met when BLI signal was seen outside of site of primary tumor transplantation. To derive short-term culture from primary tumors and metastases, anesthetized animals (isofluorane) were imaged then sacrificed. Ex-vivo BLI was subsequently performed on harvested organs to define the precise location of the metastatic lesion. Primary tumors and metastases were subsequently mechanically dissociated and cultured in DMEM with selection media to select for tumor cells. […]

cGAS = cGAS localization to micronuclei by immunofluorescence; assay type: cell-based, human; details: Lamin B2 overexpression in dnMCAK cells
Procedure: as §2

cytosolic DNA = assay: Cytosolic dsDNA and ssDNA staining after selective plasma membrane permeabilization; assay type: cell-based, human; details: after overexpression of Dnase2
Procedure: as §2
For selective plasma membrane permeabilization used for cytosolic dsDNA and ssDNA staining, cells were treated with 0.02% saponin for 5 minutes after fixation. For single-stranded (Thermo Fisher FEREN0321) and double stranded (Life Technologies—EN0771)-specific nuclease treatment, cells were also permeabilized with 0.02% saponin for 2 minutes and treated with either nucleases for 10 minutes before fixation using 4% paraformaldehyde. TBS-BSA was used as a blocking agent during antibody staining. DAPI was added together with secondary antibodies. Cells were mounted with Prolong Diamond Antifade Mountant (Life Technologies—P36961).

| Molecule | chromosome segregation errors during anaphase (MDA-MB-231 cells [1]) | chromosome segregation errors during anaphase (H2030 cells) | disease-specific survival of mice (MDA-MB-231 cells [2]) | relative fraction of micronuclei with cGAS staining (cGAS) | cytosolic dsDNA staining signal (cytosolic DNA) |
| --- | --- | --- | --- | --- | --- |
| MCAK/Kif2c: kinesin-13 protein, human sequence SEQ ID NO:3 or 7, overexpressed in tumor cells (protein, listed as Homo sapiens) MAMDSSLQARLFPGLAIKIQRSNGLIHSANVRTVNLEKSCVSVEWAEGGATKGKEIDFDDVAAINPELLQLLPLHPKDNLPLQENVTIQKQKRRSVNSKIPAPKESLRSRSTRMSTVSELRITAQENDMEVELPAAANSRKQFSVPPAPTRPSCPAVAEIPLRMVSEEMEEQVHSIRGSSSANPVNSVRRKSCLVKEVEKMKNKREEKKAQNSEMRMKRAQEYDSSFPNWEFARMIKEFRATLECHPLTMTDPIEEHRICVCVRKRPLNKQELAKKEIDVISIPSKCLLLVHEPKLKVDLTKYLENQAFCFDFAFDETASNEVVYRFTARPLVQTIFEGGKATCFAYGQTGSGKTHTMGGDLSGKAQNASKGIYAMASRDVFLLKNQPCYRKLGLEVYVTFFEIYNGKLFDLLNKKAKLRVLEDGKQQVQVVGLQEHLVNSADDVIKMLDMGSACRTSGQTFANSNSSRSHACFQIILRAKGRMHGKFSLVDLAGNERGADTSSADRQTRMEGAEINKSLLALKECIRALGQNKAHTPFRESKLTQVLRDSFIGENSRTCMIATISPGISSCEYTLNTLRYADRVKELSPHSGPSGEQLIQMETEEMEACSNGALIPGNLSKEEEELSSQMSSFNEAMTQIRELEEKAMEELKEIIQQGPDWLELSEMTEQPDYDLETFVNKAESALAQQAKHFSALRDVIKALRLAMQLEEQASRQISSKKRPQ | significant suppression | significant suppression | most survival |  |  |
| Lamin B2: mCherry-Lamin B2 overexpressed to stabilize micronuclear envelopes (protein, UniProt Q03252 1-617, looked up, mCherry fusion, mCherry-Lamin B2 overexpressed to stabilize micronuclear envelopes) Lamin-B2: MSPPSPGRRREQRRPRAAATMATPLPGRAGGPATPLSPTRLSRLQEKEELRELNDRLAHYIDRVRALELENDRLLLKISEKEEVTTREVSGIKALYESELADARRVLDETARERARLQIEIGKLRAELDEVNKSAKKREGELTVAQGRVKDLESLFHRSEVELAAALSDKRGLESDVAELRAQLAKAEDGHAVAKKQLEKETLMRVDLENRCQSLQEELDFRKSVFEEEVRETRRRHERRLVEVDSSRQQEYDFKMAQALEELRSQHDEQVRLYKLELEQTYQAKLDSAKLSSDQNDKAASAAREELKEARMRLESLSYQLSGLQKQASAAEDRIRELEEAMAGERDKFRKMLDAKEQEMTEMRDVMQQQLAEYQELLDVKLALDMEINAYRKLLEGEEERLKLSPSPSSRVTVSRATSSSSGSLSATGRLGRSKRKRLEVEEPLGSGPSVLGTGTGGSGGFHLAQQASASGSVSIEEIDLEGKFVQLKNNSDKDQSLGNWRIKRQVLEGEEIAYKFTPKYILRAGQMVTVWAAGAGVAHSPPSTLVWKGQSSWGTGESFRTVLVNADGEEVAMRTVKKSSVMRENENGEEEEEEAEFGEEDLFHQQGDPRTTSRGC |  |  |  | significantly diminished |  |
| Kif2a: third microtubule-depolymerizing kinesin-13 protein lacking kinetochore or centromere localization domains; control (protein, UniProt O00139 1-706, looked up) Kinesin-like protein KIF2A: MATANFGKIQIGIYVEIKRSDGRIHQAMVTSLNEDNESVTVEWIENGDTKGKEIDLESIFSLNPDLVPDEEIEPSPETPPPPASSAKVNKIVKNRRTVASIKNDPPSRDNRVVGSARARPSQFPEQSSSAQQNGSVSDISPVQAAKKEFGPPSRRKSNCVKEVEKLQEKREKRRLQQQELREKRAQDVDATNPNYEIMCMIRDFRGSLDYRPLTTADPIDEHRICVCVRKRPLNKKETQMKDLDVITIPSKDVVMVHEPKQKVDLTRYLENQTFRFDYAFDDSAPNEMVYRFTARPLVETIFERGMATCFAYGQTGSGKTHTMGGDFSGKNQDCSKGIYALAARDVFLMLKKPNYKKLELQVYATFFEIYSGKVFDLLNRKTKLRVLEDGKQQVQVVGLQEREVKCVEDVLKLIDIGNSCRTSGQTSANAHSSRSHAVFQIILRRKGKLHGKFSLIDLAGNERGADTSSADRQTRLEGAEINKSLLALKECIRALGRNKPHTPFRASKLTQVLRDSFIGENSRTCMIATISPGMASCENTLNTLRYANRVKELTVDPTAAGDVRPIMHHPPNQIDDLETQWGVGSSPQRDDLKLLCEQNEEEVSPQLFTFHEAVSQMVEMEEQVVEDHRAVFQESIRWLEDEKALLEMTEEVDYDVDSYATQLEAILEQKIDILTELRDKVKSFRAALQEEEQASKQINPKRPRAL | no effect | no effect | middle levels of survival |  |  |
| Kif2b: kinesin-13 protein, human sequence SEQ ID NO:1, overexpressed in tumor cells (protein, listed as Homo sapiens) MASQFCLPESPCLSPLKPLKPHFGDIQEGIYVAIQRSDKRIHLAVVTEINRENYWVTVEWVEKAVKKGKKIDLETILLLNPALDSAEHPMPPPPLSPLALAPSSAIRDQRTATKWVAMIPQKNQTASGDSLDVRVPSKPCLMKQKKSPCLWEIQKLQEQREKRRRLQQEIRARRALDVNTRNPNYEIMHMIEEYRRHLDSSKISVLEPPQEHRICVCVRKRPLNQRETTLKDLDIITVPSDNVVMVHESKQKVDLTRYLQNQTFCFDHAFDDKASNELVYQFTAQPLVESIFRKGMATCFAYGQTGSGKTYTMGGDFSGTAQDCSKGIYALVAQDVFLLLRNSTYEKLDLKVYGTFFEIYGGKVYDLLNWKKKLQVLEDGNQQIQVVGLQEKEVCCVEEVLNLVEIGNSCRTSRQTPVNAHSSRSHAVFQIILKSGRIMHGKFSLVDLAGNERGADTTKASRKRQLEGAEINKSLLALKECILALGQNKPHTPFRASKLTLVLRDSFIGQNSSTCMIATISPGMTSCENTLNTLRYANRVKKLNVDVRPYHRGHYPIGHEAPRMLKSHIGNSEMSLQRDEFIKIPYVQSEEQKEIEEVETLPTLLGKDTTISGKGSSQWLENIQERAGGVHHDIDFCIARSLSILEQKIDALTEIQKKLKLLLADLHVKSKVE | significant suppression | significant suppression | most survival |  |  |
| Dnase2: Dnase2 overexpressed using a pLenti-GIII-CMV-RFP-2A-Puro plasmid (protein, UniProt O00115 19-360, looked up) Deoxyribonuclease-2-alpha: CYGDSGQPVDWFVVYKLPALRGSGEAAQRGLQYKYLDESSGGWRDGRALINSPEGAVGRSLQPLYRSNTSQLAFLLYNDQPPQPSKAQDSSMRGHTKGVLLLDHDGGFWLVHSVPNFPPPASSAAYSWPHSACTYGQTLLCVSFPFAQFSKMGKQLTYTYPWVYNYQLEGIFAQEFPDLENVVKGHHVSQEPWNSSITLTSQAGAVFQSFAKFSKFGDDLYSGWLAAALGTNLQVQFWHKTVGILPSNCSDIWQVLNVNQIAFPGPAGPSFNSTEDHSKWCVSPKGPWTCVGDMNRNQGEEQRGGGTLCAQLPALWKAFQPLVKNYQPCNGMARKPSRAYKI |  |  |  |  | disappeared |
